Measured values published in the DeepSol protein solubility set.

test: soluble on expression in E. coli; label from the status in PepcDB or PDB records

**Q.** For “MKYFNVGKIVNTQGLRGEVRVLSVTDFADERFKKGSQLALFDKKDHFAMTVEIASHRKHKNFDIVKFKGLYHINDVEKYRDFTLKVTEDHLADLEDGEFYYHEIIGLDVYENDILIGQVKEILQPGANDVWVVKRKGKKDLLLPYIPSVILKVDVPNGRIDVTVLEGLDDENLEHHHHHH”, which “soluble on expression in E. coli” value is on record?
**A.** soluble

**Q.** For “MDNGWPNLQTLALFVAIVEEGSLGAGARKVGMAQPNASRAIAELEADMKAELLVRHPRGSHPTAAGLALVEHSRDLLQSVQEFTEWVTEGRTEQPLKLHVGASMTIAEALLPAWVADMRTRFPACRVDVSVMNSSQVIEAVQKGHLQLGFIETPHVPVRLHARVVQEDKLIVVISPNHEWANRTGRISLRELSETPLIVREVGSGTREALQELLADYDMAEPIQVLNSNAAVRVVVEAGAGPAVLGELALRDHLALGRLLSVPFEGSGVTRPLTAVWSGPRRLPILAGELVSIASNHI”, which “soluble on expression in E. coli” value is on record?
**A.** not soluble

**Q.** Which “soluble on expression in E. coli” value does the source give for “MGSDKIHHHHHHMAIIETRGIWLTTTDSKVLRSKQRIAEAMDLLAETGFNVVFPVVWNKAVTLYPSQTMQETFGVEIDPMSVGRDPLEEVVVEARRVGLKVIPWFEYGFASSYNLNGGVLLQKKPEWAARDFNGNLLNKNGFEWLNALDSQVQEFFLNLVLEVVKNYDVDGVQGDDRLPAFPCEGGYDEGTVSRYRQEYDRNPPQNPKDRQWLQWRADILTDFLARLYGEVKAVNPNLLVAIAPNIHDWAFQEYLQDSPTWLKRGIVDMIQPQIYRRDFGSYCAIADKLVSQQFTDATLPRLAPGILMKLGSYCISPEYLVQAIEYNRQLGIQGEVFFFYEGLRENNNTLAKVLRNGPYAKSASFPTLSDLSVSGVSNKKTSSTWQRLLKKIF” here?
**A.** not soluble

**Q.** With “GPGSMDYNLEYSEEQREYLERVGMREYLETFVAEVVRQKPNDIYAFLHDWASAHCQKQTKMTPTEASIKIQCAQRQNLAIKEMRSRQRKVNELLEQEETERVGKVEMEG” as the sequence, how does the “soluble on expression in E. coli” value read?
**A.** soluble

**Q.** With “MKIGLIGAGVVGRAIATLAVRAGHQVMLSNSRGPHTLFSLRAAVGCAIGTVDEAAAFGDIGVVAVPLAAYRAVPAAALAGKVVIDTNNYYPERDGAIAELDDKRTTTSELLARHLPASRIVKAFNAITMTDLDRDGRPAGSPNRRALPVAGDDAKGKAIAIALLDAFGFDALDAGPLSQGWRFERGTPAYCVALTRDALEKTLAATTRLEHHHHHH” as the sequence, how does the “soluble on expression in E. coli” value read?
**A.** not soluble

**Q.** For “HLGEHEVPGHLMDFVTTYSTNLAVPQRRDADDERVLAGKKLFYQANCVACHVPKYVTRRDAAQPEHRFQLIWPYTDMLLHDMGDGLADGVSEEQANGREWRTPPLWGIGLTRLVNPSATWLHDGRARTLLEAVLWHGGEAQAARDRVVAMSPGERADLIRFLESL”, which “soluble on expression in E. coli” value is on record?
**A.** not soluble

**Q.** For “MAGAGMYGDCSLAATLSYGAVLEPYLHPKPGGVTPYASEGGKSFGDFVLHATLSSRLLAWACLKAWKNGPIGVIASVKERYLREVVPRFKGNIAYGTFMLMAPLAVAIALSKSSEPEELVTTARDTIYCCTGRRESLLHYKILRRLSPSHLGRYRGELPDVASGGERDIPPYPLLLKLNSWDMVHRELAKGYPITLEAYRHSLNRVKEGRSVEEALLEALLKVLAEHGDTLIFQKYGGRAFKMAREEARVAFHVSERWGVRHAITWLERLWRGREWNPGAALDIVAVASGLLLITISRDASS”, which “soluble on expression in E. coli” value is on record?
**A.** not soluble

**Q.** With “MDGDGDPESVSHPEEASPEEQPEEAGAEASAEEEQLREAEEEEEAEAVEYLAELPEPLLLRVLAELPATELVQACRLVCLRWKELVDGAPLWLLKCQQEGLVPEGSADEERDHWQQFYFLSKRRRNLLRNPCGEEDLEGWSDVEHGGDGWKVEELPGDNGVEFTQDDSVKKYFASSFEWCRKAQVIDLQAEGYWEELLDTTQPAIVVKDWYSGRTDAGSLYELTVRLLSENEDVLAEFATGQVAVPEDGSWMEISHTFIDYGPGVRFVRFEHGGQDSVYWKGWFGARVTNSSVWVEP” as the sequence, how does the “soluble on expression in E. coli” value read?
**A.** soluble

**Q.** For “MGSDKIHHHHHHMNFDEKPYLRSIALKHQGLAEAKVTLIDGEFHDESAVRVQDCYPFTIPALAGFDSLDFDADVTFFVGENGSGKSTLLEAIAVAMGLNAEGGNKNTHFATKVSHSNLGYYLKTIKSFKKPKDSYFLRAESFYNLASYMEEDGREAYLGSYGGTSLHQQSHGESFMATLLHKFRGQGLYLMDEPEAALSPSRQLAALSAIHQLVENKSQFIIATHSPILLAYPRAKIYQFSNQGIVQITYQETEHYQITKAFLNQPEKLLASLGVG”, which “soluble on expression in E. coli” value is on record?
**A.** not soluble

**Q.** With “LKSESAEKTREVLWQQYYASNPPDHAVLEVLATPVREALLARFGQHQGSVVPAIDLPELRSVLQQFDSFGKRWEAILLQVLEGIKPNESQVGLPYLSELINKELMILLPSNS” as the sequence, how does the “soluble on expression in E. coli” value read?
**A.** soluble

**Q.** For “MGSDKIHHHHHHMLLQTKSNEMLLEKVMDEFSAATSLASVVVDIHGTEVSRLCNFTPFCQLIRSNPKYRSLCQKCDMFGGLEASKTGKPLIYRCHAGLTDFSVPIVVENQLSGFLLSGQVICEENSEVGNIQTEETDWKNDKDLISAFRSVPVFSSKKINSSAEMLTIISQYYLKSEMEKSREEQKQKIVFHHNKPTHHEDNKEIRKALKYIEKNLNRPITLDEVASHVYLSSYYFSKLFKKEMNVNFINYVNQKKMSLAKDMLKNPRWSIDNVARNLGFTQTSYFCKVFRKEFDVTPKGYRETLK”, which “soluble on expression in E. coli” value is on record?
**A.** not soluble

**Q.** Which “soluble on expression in E. coli” value does the source give for “AMDIRQVTETIAMIEEQNFDIRTITMGISLLDCIDPDINRAAEKIYQKITTKAANLVAVGDEIAAELGIPIVNKRVSVTPISLIGAATDATDYVVLAKALDKAAKEIGVDFIGGFSALVQKGYQKGDEILINSIPRALAETDKVCSSVNIGSTKSGINMTAVADMGRIIKETANLSDMGVAKLVVFANAVEDNPFMAGAFHGVGEADVIINVGVSGPGVVKRALEKVRGQSFDVVAETVKKTAFKITRIGQLVGQMASERLGVEFGIVDLSLAPTPAVGDSVARVLEEMGLETVGTHGTTAALALLNDQVKKGGVMACNQVGGLSGAFIPVSEDEGMIAAVQNGSLNLEKLEAMTAICSVGLDMIAIPEDTPAETIAAMIADEAAIGVINMKTTAVRIIPKGKEGDMIEFGGLLGTAPVMKVNGASSVDFISRGGQIPAPIHSFKN” here?
**A.** soluble

**Q.** With “HHHHHHMAEKKQWHETLHDQFGQYFAVDNVLYHEKTDHQDLIIFENAAFGRVMALDGVVQTTERDEFIYHEMMTHVPLLAHGHAKHVLIIGGGDGAMLREVTRHKNVESITMVEIDAGVVSFCRQYLPNHNAGSYDDPRFKLVIDDGVNFVNQTSQTFDVIISDCTDPIGPGESLFTSAFYEGCKRCLNPGGIFVAQNGVCFLQQEEAIDSHRKLSHYFSDVGFYQAAIPTYYGGIMTFAWATDNDALRHLSTEIIQARFLASGLKCRYYNPAIHTAAFALPQYLQDALASQPS” as the sequence, how does the “soluble on expression in E. coli” value read?
**A.** soluble

**Q.** Which “soluble on expression in E. coli” value does the source give for “MAHHHHHHMPSGERRGRVGPVRFRTFLRNTVLDVMRSRGWLETDSDLGWDLFWADVGWIREVHDHVRLDDVQRINHFRNHFELTRKDFMVKNLKRMRKSLEREGRLEEATEFDFFPVTFSLPQDYGMFETEFRRQPNAIWIMKPPAKAQGKGIFLFSKISQIAEWRKDYKQRQVGAVGEKAGGPYGAEQVEPYLAQRYIENPHLVGGKKYDLRVYVLVTCYSPLTVWLHRTGFARFCHQRFSLRDIENTFIHVTNVAVQKTNPKYTPSSGCKYGLRNLRQYITASRGVETAQKLFDDIQNMILRSLHAVQKIIVQDKHCFELYGYDIMVDNDLHPWLIETNASPSLSAETPADYHLKFNMLEDMFSVIDIEKRRTGDEIRVGGFDLIWKNGPVGPACRGDAKGGGVTQSFLGCANELEIPISHMRMPPRLQQMDSSERLLT” here?
**A.** not soluble

**Q.** Which “soluble on expression in E. coli” value does the source give for “GPGSMTYYRERRKTLTVQGLKDAVQESLAKYLYDNAIFCAERLYALAPTHESLHTVAHCYVTSGDAGTAYRILRAHYPYLLSATPSFATTNSSTSGNGTGVGSNTAADAAARWDCQYLLGVTCGMTQRYMEGESFLEELERQQSSSEVLYWLGVCRRHLRRGYAEEAFAKSAVLDPLNFVAFENHVKMTRTPREEVRCIYTDAAPGVGAEDAVRRSSMSGMGIGGVGGAHRHVKREALRLYLSPFASVTFLQWTYRCKEARALLQHESFPERDSGWAFGALAMAYFHDGDVENSTVEFANMRRVAPWRLADPALVYYSTALWQRKELGTLGSLSQTLINEMPASPITLCVVANNYSLAKESKESLCMLNRAIQVDHDFAYAHTLRGYELLYLDLKSEAVDAFHEAILIDGGHYNAYAGLGELYFRSEDLQKARNYFQQAISINPLPTIMNRYAATYHRRDATRESLNEALRIYESAIRRHPTNLGARHQRAEVLIRLGRFHEAHDELLGMTKECPDEAMLYVTLAKCVHLMGLTGQAVQYYHTAMDLDPRRVGYIKSCLERLAMGKPDVAEANA” here?
**A.** not soluble

**Q.** For “MAKNGGFSLFAKKEKRFIFEGRHSASDKLVNGEVSAFTEEEARKKLAKRGIRPLQITRVKTSSKRKITQEDITVFTRQLSTMIKAGLPLMQAFEIVARGHGNPSMTEMLMEIRGEVEQGSSLSRAFSNHPKYFDRFYCNLVAAGETGGVLESLLDKLAIYKEKTQAIRKKVKTALT”, which “soluble on expression in E. coli” value is on record?
**A.** not soluble

**Q.** With “PNIEFFTLKTPDGSELDSVQVTGEDEEKKPMGERKFIITCIARDQNFINWIKDLNYTAKNLGATAISFNYRGVDYSRGLVWTENNLVDDILAQVQRLISLGADPKNICLDGMCIGGAVATIAAAKLHEKG” as the sequence, how does the “soluble on expression in E. coli” value read?
**A.** not soluble

**Q.** For “QVTISITEDCPNNCIHCALPDTKNRAKLSPETVRDVIDQVLEMGTTFVIFDGGEPLTYPGLEELISYVDPEKAITGMFTSGVGLTEERARSLKAAGLYSLTVSFDSAYEEKHDYVRGRKGVFKSAVEAVKNGLAAGLLVNIYVVLSRDNVNELDELYNLAAGLGAHELSFYEIVPTGRWMDHASEIMTPKDMRK”, which “soluble on expression in E. coli” value is on record?
**A.** not soluble

**Q.** For “MAHHHHHHMADAADTLLLSLEVEAAAARNAELSQTIEMLQDEVLRLRRANASLLACDARHCPKVSLQPVETPSATADVSRDESSAAADAREVFVILDDLLFEMADIRSRIILDERVDLTPRAFDSEATVAAHARRCLEEARKLKEAFVVKQHSTAAQVSELRRALGEQAEANQKQTAASALQCAMLERKYDELKRRYDEAVSRQDELVLDGVIQSPSQMLPRS”, which “soluble on expression in E. coli” value is on record?
**A.** soluble

**Q.** Which “soluble on expression in E. coli” value does the source give for “GPLGSPEFPGRRKPEAQPFAHLTINAASIPSGSHKVTLSSWYHDRGWAKISNMTLSNGKLRVNQDGFYYLYANICFRHHETSGSVPTDYLQLMVYVVKTSIKIPSSHNLMKGGSTKNWSGNSEFHFYSINVGGFFKLRAGEEISIQVSNPSLLDPDQDATYFGAFKVQDID” here?
**A.** soluble

**Q.** With “MNYLQYYPTDVINGEGTRCTLFVSGCTHACKGCYNQKSWSFSAGVLFDDVMEQQIINDLKDTRIKRQGLTLSGGDPLHPLNVETLLPFVQRVKRECPDKDIWVWTGYKLDELDKQQRAMLPYIDVLIDGKFIQEQADPSLVWRGSANQIIHRFKLLEHHHHHH” as the sequence, how does the “soluble on expression in E. coli” value read?
**A.** soluble

**Q.** Which “soluble on expression in E. coli” value does the source give for “IGPVQYHIGGTITYTTNKLIDLGATSVLKSGFVGKQQGYPLNSYFGLRYVGKIQTQEELEKYKYYYLDGNGIGMQDNLRLGDHMFEDVNGDGKLDQNDYVYLGTDDPKLSYSINIGLEWKGFDLSAIFQGVGRRTVFRGGEGNETWRVPMSAIYLNTTTQSIGNTWNPENRNAYYPSYTSIGSINNYNYQCSSWSVENGAYLRLKNLTLGYTLPASWLAKTNAISKLRIYFTGADLWEHSKLRDGWDPEASRKTKDLGRYPFNRTFTVGVNATF” here?
**A.** not soluble
